Assay results published in the supplement of paper PMC7877785.
± gives the uncertainty stated by the source.

Assay: self-splicing fitness, log relative to wild type (ln ratio); higher = more splicing; Tetrahymena group I intron in knt gene, E. coli kanamycin selection, DiMSum; sequences stand for … in CUCUCU…GGAGGGAAAAGUUAUCAGGCAUGCACCUGGUAGCUAGUCUUUAAACCAAUAGAUUGCAUCGGUUUAAAAGGCAAGACCGUCAAAUUGCGGGAAAGGGGUCAACAGCCGUUCAGUACCAAGUCUCAGGGGAAACUUUGAGAUGGCCUUGCAAAGGGUAUGGUAAUAAGCUGACGGACAUGGUCCUAACCACGCAGCCAAGUCCUAAGUCAACAGAUCUUCUGUUGAUAUGGAUGCAGUUCACAGACUAAAUGUCGGUCGGGGAAGAUGUAUUCUUCUCAUAAGAUAUAGUCGGACCUCUCCUUAAUGGGAGCUAGCGGAUGAAGUGAUGCAACACUGGAGCCGCUGGGAACUAAUUUGUAUGCGAAAGUAUAUUGAUUAGUUUUGGAGUACUCGUGGUCG
In short: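 A randomised library covering all eight P1ex-region intron nucleotides was built with the intron in the knt kanamycin-resistance gene on pET-22b(+) and held in E. coli BL21(DE3). Cells were grown overnight at 37°C or 30°C on LB agar, with or without 25 μg/mL kanamycin, plus 100 μg/mL carbenicillin, 50 μM IPTG and 0.2% rhamnose, and pooled colonies were amplicon-sequenced on an Illumina HiSeq 2500. DiMSum fitness is the error-weighted combination of wild-type-normalised replicate fold changes, kanamycin versus none.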

| Sequence | self-splicing fitness (ln) (30 °C) | self-splicing fitness (ln) (37 °C) |
| --- | --- | --- |
| GGACAGCAAUAUUACGGAAC | -0.76 ± 0.1 | -0.102 ± 0.11 |
| GGACAGCAAUAUUACGGAAU | -1.19 ± 0.089 | -0.191 ± 0.12 |
| GGACAGCAAUAUUACGGCAC | -0.469 ± 0.12 | -0.25 ± 0.15 |
| GGACAGCAAUAUUACGGCUC | 0.0372 ± 0.08 | 0.377 ± 0.11 |
| GGACAGCAAUAUUACGGCUG | -3.23 ± 0.31 | -0.371 ± 0.18 |
| GGACAGCAAUAUUACGGGGU | -3.5 ± 0.17 | -2.17 ± 0.12 |
| GGACAGCAAUAUUACGGUCC | -3.67 ± 0.26 | -2.28 ± 0.23 |
| GGACAGCAAUAUUACGGUGU | -2.84 ± 0.11 | -1.89 ± 0.12 |
| GGACAGCAAUAUUACGGUUG | -1.41 ± 0.067 | -0.752 ± 0.083 |
| GGACAGCAAUAUUACGGUUU | -2.12 ± 0.072 | -0.504 ± 0.073 |
| GGACAGCAAUAUUACGUAUC | -0.918 ± 0.093 | -0.855 ± 0.11 |
| GGACAGCAAUAUUACGUGCA | -0.37 ± 0.085 | -0.64 ± 0.09 |
| GGACAGCAAUAUUACGUUUG | -0.577 ± 0.04 | -0.1 ± 0.058 |
| GGAGAGCAAUAUUACGAAUA | -2.51 ± 0.26 | – |
| GGAGAGCAAUAUUACGAGUA | -3.36 ± 0.41 | -2.48 ± 0.32 |
| GGAGAGCAAUAUUACGAUCG | -1.88 ± 0.14 | -0.426 ± 0.16 |
| GGAGAGCAAUAUUACGCGGA | – | -1.29 ± 0.34 |
| GGAGAGCAAUAUUACGCUCA | -2.77 ± 0.27 | -0.851 ± 0.26 |
| GGAGAGCAAUAUUACGCUGG | -2.21 ± 0.29 | -2.41 ± 0.44 |
| GGAGAGCAAUAUUACGGAUA | -4.36 ± 0.46 | -2.05 ± 0.24 |
| GGAGAGCAAUAUUACGUAAG | -2.82 ± 0.19 | -0.478 ± 0.21 |
| GGAGAGCAAUAUUACGUGCG | -1.7 ± 0.14 | -2.06 ± 0.23 |
| GGAUAGCAAUAUUACGAAAC | -1.67 ± 0.31 | -0.834 ± 0.23 |
| GGAUAGCAAUAUUACGAAUU | -2.56 ± 0.21 | -1.57 ± 0.19 |
| GGAUAGCAAUAUUACGACCC | -0.96 ± 0.23 | – |

| Sequence | self-splicing fitness (ln) (30 °C) | self-splicing fitness (ln) (37 °C) |
| --- | --- | --- |
| GGAUAGCAAUAUUACGAGGC | -3.93 ± 0.31 | -2.43 ± 0.37 |
| GGAUAGCAAUAUUACGCAGC | -3.14 ± 0.25 | -1.59 ± 0.2 |
| GGAUAGCAAUAUUACGCAUG | -0.819 ± 0.12 | 0.00525 ± 0.14 |
| GGAUAGCAAUAUUACGCCGA | -0.933 ± 0.13 | -0.0698 ± 0.14 |
| GGAUAGCAAUAUUACGCGAU | -3.65 ± 0.3 | -2.91 ± 0.47 |
| GGAUAGCAAUAUUACGCGCA | -0.345 ± 0.14 | 0.0709 ± 0.14 |
| GGAUAGCAAUAUUACGCGCU | -2.14 ± 0.23 | -0.904 ± 0.23 |
| GGAUAGCAAUAUUACGCUAG | -2.26 ± 0.19 | -1.21 ± 0.18 |
| GGAUAGCAAUAUUACGCUUC | -3.86 ± 0.35 | – |
| GGAUAGCAAUAUUACGGAUG | -3.16 ± 0.33 | -0.578 ± 0.18 |
| GGAUAGCAAUAUUACGGCUA | -0.0854 ± 0.16 | -0.532 ± 0.14 |
| GGAUAGCAAUAUUACGGUAG | – | -3.74 ± 0.34 |
| GGAUAGCAAUAUUACGGUAU | -1.48 ± 0.084 | -0.924 ± 0.09 |
| GGAUAGCAAUAUUACGGUGA | -2.43 ± 0.1 | -1.14 ± 0.091 |
| GGAUAGCAAUAUUACGUCAC | -2.88 ± 0.27 | -2.05 ± 0.26 |
| GGAUAGCAAUAUUACGUGGU | -2.33 ± 0.14 | -2.09 ± 0.17 |
| GGAUAGCAAUAUUACGUUGA | -3.16 ± 0.24 | -1.25 ± 0.18 |
| GGCAAGCAAUAUUACGAAAU | -0.0122 ± 0.15 | -0.727 ± 0.12 |
| GGCAAGCAAUAUUACGAACC | -2.41 ± 0.36 | -0.982 ± 0.24 |
| GGCAAGCAAUAUUACGAACG | -0.449 ± 0.068 | -0.593 ± 0.061 |
| GGCAAGCAAUAUUACGACAU | -0.288 ± 0.012 | 0.141 ± 0.032 |
| GGCAAGCAAUAUUACGACUU | -0.555 ± 0.082 | 0.226 ± 0.083 |
| GGCAAGCAAUAUUACGAUCA | -0.849 ± 0.12 | -0.349 ± 0.098 |
| GGCAAGCAAUAUUACGAUCC | -1.31 ± 0.22 | -0.615 ± 0.27 |
| GGCAAGCAAUAUUACGAUCU | -0.22 ± 0.097 | -0.162 ± 0.13 |

| Sequence | self-splicing fitness (ln) (30 °C) | self-splicing fitness (ln) (37 °C) |
| --- | --- | --- |
| GGCAAGCAAUAUUACGCAAG | -4.16 ± 0.36 | -2.04 ± 0.23 |
| GGCAAGCAAUAUUACGCAUA | -0.239 ± 0.12 | 0.0644 ± 0.13 |
| GGCAAGCAAUAUUACGCCCG | -2.21 ± 0.45 | – |
| GGCAAGCAAUAUUACGCGAA | -0.953 ± 0.12 | 0.499 ± 0.13 |
| GGCAAGCAAUAUUACGCGGC | -3.13 ± 0.28 | -2.88 ± 0.41 |
| GGCAAGCAAUAUUACGCUAC | -3.33 ± 0.27 | -2.79 ± 0.23 |
| GGCAAGCAAUAUUACGCUCA | -1.21 ± 0.13 | 0.321 ± 0.17 |
| GGCAAGCAAUAUUACGCUUC | -1.44 ± 0.21 | -2.39 ± 0.42 |
| GGCAAGCAAUAUUACGGCUG | -1.68 ± 0.1 | -0.318 ± 0.16 |
| GGCAAGCAAUAUUACGGGCG | 0.0849 ± 0.086 | -0.132 ± 0.096 |
| GGCAAGCAAUAUUACGGGGG | -2.86 ± 0.16 | -2.54 ± 0.22 |
| GGCAAGCAAUAUUACGGUAG | -2.27 ± 0.11 | -2.2 ± 0.11 |
| GGCAAGCAAUAUUACGGUGA | -0.759 ± 0.071 | -0.336 ± 0.077 |
| GGCAAGCAAUAUUACGGUGG | -2.24 ± 0.11 | -1.81 ± 0.14 |
| GGCAAGCAAUAUUACGGUUC | -0.000497 ± 0.07 | -0.268 ± 0.1 |
| GGCAAGCAAUAUUACGUAGC | -2.4 ± 0.33 | -2.24 ± 0.32 |
| GGCAAGCAAUAUUACGUGCA | -0.303 ± 0.068 | -0.635 ± 0.074 |
| GGCAAGCAAUAUUACGUUAA | -1.09 ± 0.1 | -0.115 ± 0.1 |
| GGCAAGCAAUAUUACGUUAU | -0.941 ± 0.065 | -0.757 ± 0.071 |
| GGCAAGCAAUAUUACGUUGU | -3.52 ± 0.16 | -2.6 ± 0.21 |
| GGCCAGCAAUAUUACGAAAA | -2.32 ± 0.24 | -2.23 ± 0.46 |
| GGCCAGCAAUAUUACGAACA | -3.34 ± 0.28 | -2.03 ± 0.19 |
| GGCCAGCAAUAUUACGAGUU | -0.659 ± 0.1 | -1 ± 0.11 |
| GGCCAGCAAUAUUACGAUAA | -3.64 ± 0.4 | -1.09 ± 0.15 |
| GGCCAGCAAUAUUACGAUGG | -4.28 ± 0.33 | -2.67 ± 0.33 |

| Sequence | self-splicing fitness (ln) (30 °C) | self-splicing fitness (ln) (37 °C) |
| --- | --- | --- |
| GGCCAGCAAUAUUACGCACU | -0.947 ± 0.13 | 0.319 ± 0.16 |
| GGCCAGCAAUAUUACGCCCC | -1.65 ± 0.17 | -0.851 ± 0.26 |
| GGCCAGCAAUAUUACGCCGU | -2.39 ± 0.22 | -1.48 ± 0.19 |
| GGCCAGCAAUAUUACGCGGC | -3.46 ± 0.24 | – |
| GGCCAGCAAUAUUACGCGUC | -2.97 ± 0.12 | -1.75 ± 0.15 |
| GGCCAGCAAUAUUACGCUAU | -1.35 ± 0.054 | -1.02 ± 0.063 |
| GGCCAGCAAUAUUACGGACA | -0.666 ± 0.12 | -1.01 ± 0.17 |
| GGCCAGCAAUAUUACGGAGC | -2.25 ± 0.18 | -0.92 ± 0.21 |
| GGCCAGCAAUAUUACGGAUA | -1.41 ± 0.12 | -1.02 ± 0.14 |
| GGCCAGCAAUAUUACGGCCA | -2.42 ± 0.16 | -1.03 ± 0.17 |
| GGCCAGCAAUAUUACGGCGA | 0.0969 ± 0.095 | 0.581 ± 0.11 |
| GGCCAGCAAUAUUACGGGAA | -1.98 ± 0.11 | -0.198 ± 0.11 |
| GGCCAGCAAUAUUACGGGCU | -2.4 ± 0.2 | -3.16 ± 0.47 |
| GGCCAGCAAUAUUACGGGGA | -0.876 ± 0.068 | -0.469 ± 0.073 |
| GGCCAGCAAUAUUACGGUAA | -0.188 ± 0.053 | 0.0838 ± 0.061 |
| GGCCAGCAAUAUUACGUAAA | -1.26 ± 0.11 | -0.35 ± 0.14 |
| GGCCAGCAAUAUUACGUAGG | -2.19 ± 0.14 | -1.85 ± 0.18 |
| GGCCAGCAAUAUUACGUCGA | -2.72 ± 0.21 | -1.46 ± 0.2 |
| GGCCAGCAAUAUUACGUUCU | -0.00519 ± 0.082 | 0.108 ± 0.089 |
| GGCCAGCAAUAUUACGUUUG | -3.15 ± 0.14 | -2.4 ± 0.18 |
| GGCGAGCAAUAUUACGAAAA | – | -2.97 ± 0.47 |
| GGCGAGCAAUAUUACGACAU | -0.665 ± 0.015 | -0.155 ± 0.034 |
